Consider five substances from paper doi:10.1101/2020.03.22.001966.

Holding throughout (assay): SEC
Test [1] deals with Acinetobacter baumannii BigR (Acinetobacter baumannii).
Test [2] deals with C9S SqrR, reduced (Rhodobacter capsulatus).
In test [3] the target is C9S/C41S SqrR (Rhodobacter capsulatus).
The target of test [4] is C9S/C107S SqrR (Rhodobacter capsulatus).
The target in test [5] is wild-type SqrR (sulfide quinone reductase repressor), reduced (Rhodobacter capsulatus).

Turning to “Acinetobacter baumannii BigR (natural protein)”, the stoichiometry N in test [1] was 2.

C9S SqrR, reduced (natural protein) came in with a stoichiometry N in test [2] of 2.

Consider C9S/C41S SqrR (natural protein), for which, in test [3], the stoichiometry N turned out to be 2.

C9S/C107S SqrR (natural protein) registered a stoichiometry N in test [4] of 2.

In the case of “wild-type SqrR (sulfide quinone reductase repressor), reduced (natural protein)”, the stoichiometry N in test [5] came to 2.
